Literature values in publication PMC6121496.
Values joined by “and” are separate entries in the source; they are usually repeats but may differ in a detail not shown here. Identical values can stand only once. Like-named read-outs stand apart in the source and are kept apart here.

What was measured:
[1] = biological target: KPC-2 beta-lactamase (Klebsiella pneumoniae) (UniProt Q9F663)
[2] = biological target: TEM-1 beta-lactamase (Escherichia coli) (UniProt P62593)
[3] = biological target: TEM-1 beta-lactamase (Escherichia coli) (UniProt P62593); remark: listed apart in the source
[4] = biological target: TEM-1 beta-lactamase (Escherichia coli) (UniProt P62593); remark: listed apart in the source
[5] = biological target: TEM-1 beta-lactamase (Escherichia coli) (UniProt P62593); remark: listed apart in the source
[6] = biological target: TEM-1 beta-lactamase (Escherichia coli) (UniProt P62593); remark: listed apart in the source
[7] = biological target: TEM-1 beta-lactamase (Escherichia coli) (UniProt P62593); assay: SPR
[8] = biological target: TEM-1 beta-lactamase (Escherichia coli) (UniProt P62593); assay: SPR; remark: listed apart in the source
[9] = biological target: CTX-M14 beta-lactamase (Escherichia coli); assay: enzyme inhibition
[10] = biological target: KPC-3 beta-lactamase (Klebsiella pneumoniae) (UniProt Q9F663); assay: enzyme inhibition
[11] = biological target: PC1 beta-lactamase (Staphylococcus aureus) (UniProt P00807); assay: enzyme inhibition
Chain of UniProt P00807 (P00807 25-281): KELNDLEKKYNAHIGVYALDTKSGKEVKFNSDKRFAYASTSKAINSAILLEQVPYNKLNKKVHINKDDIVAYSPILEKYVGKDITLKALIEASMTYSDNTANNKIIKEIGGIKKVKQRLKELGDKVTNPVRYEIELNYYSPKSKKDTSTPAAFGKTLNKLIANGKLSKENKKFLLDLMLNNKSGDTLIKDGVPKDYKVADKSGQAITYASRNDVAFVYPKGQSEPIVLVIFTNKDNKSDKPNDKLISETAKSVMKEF

[12] = biological target: SHV-1 beta-lactamase (Klebsiella pneumoniae) (UniProt P0AD64); assay: enzyme inhibition
Chain of UniProt P0AD64 (P0AD64 22-286): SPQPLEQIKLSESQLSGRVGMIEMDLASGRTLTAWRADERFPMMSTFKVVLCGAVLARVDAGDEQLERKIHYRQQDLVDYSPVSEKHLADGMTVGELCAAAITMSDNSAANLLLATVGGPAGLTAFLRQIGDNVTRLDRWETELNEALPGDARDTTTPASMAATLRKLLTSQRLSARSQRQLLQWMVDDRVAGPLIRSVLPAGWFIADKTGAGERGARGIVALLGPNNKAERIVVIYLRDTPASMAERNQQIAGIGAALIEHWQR

[13] = biological target: SME-1 beta-lactamase (Serratia marcescens) (UniProt P52682); assay: enzyme inhibition
Chain of UniProt P52682 (P52682 28-294): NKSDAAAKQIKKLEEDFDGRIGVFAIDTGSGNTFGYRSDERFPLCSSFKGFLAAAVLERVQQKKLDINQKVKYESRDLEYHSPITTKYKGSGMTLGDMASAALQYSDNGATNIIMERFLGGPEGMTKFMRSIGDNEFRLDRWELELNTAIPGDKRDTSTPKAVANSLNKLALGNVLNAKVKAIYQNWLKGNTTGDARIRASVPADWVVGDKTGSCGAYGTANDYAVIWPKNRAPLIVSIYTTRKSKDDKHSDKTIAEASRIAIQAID

[14] = biological target: PC1 beta-lactamase (Staphylococcus aureus) (UniProt P00807); assay: stopped flow fluorometry, ITC
[15] = biological target: TEM-1 beta-lactamase (Escherichia coli) (UniProt P62593); remark: listed apart in the source
[16] = biological target: TEM-1 beta-lactamase (Escherichia coli) (UniProt P62593); remark: listed apart in the source

Chain of UniProt P62593 (P62593 24-286): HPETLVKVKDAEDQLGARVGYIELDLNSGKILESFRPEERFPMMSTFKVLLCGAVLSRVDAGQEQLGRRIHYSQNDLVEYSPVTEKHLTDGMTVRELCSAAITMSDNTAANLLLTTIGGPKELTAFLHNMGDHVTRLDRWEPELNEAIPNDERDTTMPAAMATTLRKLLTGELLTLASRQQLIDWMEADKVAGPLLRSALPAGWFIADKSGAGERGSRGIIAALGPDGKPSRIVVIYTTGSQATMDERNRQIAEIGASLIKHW

**Q.** For BLIP (from UniProt P35804), which Ki [1] is on record?
**A.** 1.2 nM

**Q.** And the Ki [2]?
**A.** 0.4 nM

**Q.** And the Kd [3]?
**A.** 1.3 nM and 1.7 nM

**Q.** And the Ki [4]?
**A.** 0.5 nM

**Q.** What about the Kd [5] of the same substance?
**A.** 0.3 nM

**Q.** What about the Kd [6] of the same substance?
**A.** 0.4 nM

**Q.** And the Kd [7]?
**A.** 1.25 nM

**Q.** And the Kd [8]?
**A.** 15 nM

**Q.** And the Ki [9]?
**A.** 810 nM

**Q.** And the Ki [10]?
**A.** 0.25 nM

**Q.** What about the Ki [11] of the same substance?
**A.** 350 nM

**Q.** And the Kd [12]?
**A.** 1250 nM

**Q.** And the Ki [12]?
**A.** 1100 nM and 1130 nM

**Q.** And the Ki [13]?
**A.** 2.4 nM

**Q.** What about the Kd [14] of the same substance?
**A.** 380 nM

**Q.** Which Ki [15] does the source give for “BLIP peptide 30-49 (from UniProt P35804)” here?
**A.** 352000 nM

**Q.** Which Ki [16] does the source give for BLIP peptide (from UniProt P35804) here?
**A.** 58000 nM
